Data: patent publication US11499162B2, “Plants having increased tolerance to herbicides” (BASF SE, priority 2016, dated 2022)
Residue numbers refer to the chain shown, from its start. Numbers in names are those of the source.

B1: Q71NL92AY93FD128A: mutated TriA variant of SEQ ID NO: 2 (protein)
chain: MQTLSIQHGTLVTMDQYRRVLGDSWVHVQDGRIVALGVHAESVPPPADRVIDARGKVVLPGFINAHTHVNNILLRGGPSHGRQLYDWLFNVAFPGQKAMRPEDVAVAVRLYCAEAVRSGITTINDNAASAIYPGNIEAAMAVYGEVGVRVVYARMFFDRMDGRIQGYVDALKARSPQVELCSIMEETAVAKDRITALSDQYHGTAGGRISVWPAPAITPAVTVEGMRWAQAFARDRAVMWTLHMAESDHDERLHWMSPAEYMECYGLLDERLQVAHCVYFDRKDVRLLHRHNVKVASQVVSNAYLGSGVAPVPEMVERGMAVGIGTDDGNCNDSVNMIGDMKFMAHIHRAVHRDADVLTPEKILEMATIDGARSLGMDHEIGSIETGKRADLILLDLRHPQTTPHHHLAATIVFQAYGNEVDTVLIDGNVVMENRRLSFLPPERELAFLEEAQSRATAILQRANMVANPAWRSL
modifications: Pseudomonas
B2: N70VQ71V: mutated TriA variant of SEQ ID NO: 2 (protein)
chain: B1 chain with N70V, N71V, A92L, F93Y, A128D
modifications: Pseudomonas
B3: L92AY93A: mutated TriA variant of SEQ ID NO: 2 (protein)
chain: B1 chain with N71Q, F93A, A128D
modifications: Pseudomonas
B4: Q71NL92AD328G: mutated TriA variant of SEQ ID NO: 2 (protein)
chain: B1 chain with F93Y, A128D, D328G
modifications: Pseudomonas
B5: L92AF89A: mutated TriA variant of SEQ ID NO: 2 (protein)
chain: B1 chain with N71Q, F89A, F93Y, A128D
modifications: Pseudomonas
B6: L92AY93F: mutated TriA variant of SEQ ID NO: 2 (protein)
chain: B1 chain with N71Q, A128D
modifications: Pseudomonas
B7: F89A: mutated TriA variant of SEQ ID NO: 2 (protein)
chain: B1 chain with N71Q, F89A, A92L, F93Y, A128D
modifications: Pseudomonas
B8: L92AF89AY93A: mutated TriA variant of SEQ ID NO: 2 (protein)
chain: B1 chain with N71Q, F89A, F93A, A128D
modifications: Pseudomonas
B9: Y93A: mutated TriA variant of SEQ ID NO: 2 (protein)
chain: B1 chain with N71Q, A92L, F93A, A128D
modifications: Pseudomonas
B10: Q71NL92AY93FD128GQ96T: mutated TriA variant of SEQ ID NO: 2 (protein)
chain: B1 chain with Q96T, A128G
modifications: Pseudomonas
B11: Q71NL92AM155TF157V: mutated TriA variant of SEQ ID NO: 2 (protein)
chain: B1 chain with F93Y, A128D, M155T, F157V
modifications: Pseudomonas
B12: Y93L: mutated TriA variant of SEQ ID NO: 2 (protein)
chain: B1 chain with N71Q, A92L, F93L, A128D
modifications: Pseudomonas
B13: Q71NL92AY93FD128G: mutated TriA variant of SEQ ID NO: 2 (protein)
chain: B1 chain with A128G
modifications: Pseudomonas
B14: Y93F: mutated TriA variant of SEQ ID NO: 2 (protein)
chain: B1 chain with N71Q, A92L, A128D
modifications: Pseudomonas
B15: Y93V: mutated TriA variant of SEQ ID NO: 2 (protein)
chain: B1 chain with N71Q, A92L, F93V, A128D
modifications: Pseudomonas
B16: Q71NL92AM155TF157L: mutated TriA variant of SEQ ID NO: 2 (protein)
chain: B1 chain with F93Y, A128D, M155T, F157L
modifications: Pseudomonas
B17: Q71NL92AM155VF157L: mutated TriA variant of SEQ ID NO: 2 (protein)
chain: B1 chain with F93Y, A128D, M155V, F157L
modifications: Pseudomonas
B18: M160G: mutated TriA variant of SEQ ID NO: 2 (protein)
chain: B1 chain with N71Q, A92L, F93Y, A128D, M160G
modifications: Pseudomonas
B19: Q71C: mutated TriA variant of SEQ ID NO: 2 (protein)
chain: B1 chain with N71C, A92L, F93Y, A128D
modifications: Pseudomonas
B20: L92AY93L: mutated TriA variant of SEQ ID NO: 2 (protein)
chain: B1 chain with N71Q, F93L, A128D
modifications: Pseudomonas

Format: biochemical
Conditions: pH 7.2
Summary of the method: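 TriA variants, N-His-tagged, were expressed in E. coli BL21(DE3) Gold with groEL/groES chaperones and purified by Ni-IDA affinity. Enzyme in 25 mM sodium phosphate pH 7.2 was incubated with azine substrates at 1 nM to 10 nM, 30° C. Products were identified by UPLC-HR-MS.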

Which results are given for B1?
Degradation in % of 6-cyclopentyl-N4-(2,3,4,5,6-pentafluorophenyl)-1,3,5-triazine-2,4-diamine: 98%; Degradation in % of Melamine: 0%

For B2, which “Degradation in % of 6-cyclopentyl-N4-(2,3,4,5,6-pentafluorophenyl)-1,3,5-triazine-2,4-diamine” value is on record?
The value was 0%.

And the “Degradation in % of Melamine” value?
Its value is 0%.

What does the source list for B3?
Degradation in % of 6-cyclopentyl-N4-(2,3,4,5,6-pentafluorophenyl)-1,3,5-triazine-2,4-diamine: 56%; Degradation in % of Melamine: 1%

For B4, which “Degradation in % of 6-cyclopentyl-N4-(2,3,4,5,6-pentafluorophenyl)-1,3,5-triazine-2,4-diamine” value is on record?
The value was 6%.

And the “Degradation in % of Melamine” value?
The value was 0%.

For B5, which “Degradation in % of 6-cyclopentyl-N4-(2,3,4,5,6-pentafluorophenyl)-1,3,5-triazine-2,4-diamine” value is on record?
The value was 100%.

And the “Degradation in % of Melamine” value?
Its value is 100%.

Which results are given for B6?
Degradation in % of 6-cyclopentyl-N4-(2,3,4,5,6-pentafluorophenyl)-1,3,5-triazine-2,4-diamine: 100%; Degradation in % of Melamine: 100%

With B7 as the molecule, how does the “Degradation in % of 6-cyclopentyl-N4-(2,3,4,5,6-pentafluorophenyl)-1,3,5-triazine-2,4-diamine” value read?
The value was 26%.

What about the “Degradation in % of Melamine” value of the same molecule?
Its value is 100%.

With B8 as the molecule, how does the “Degradation in % of 6-cyclopentyl-N4-(2,3,4,5,6-pentafluorophenyl)-1,3,5-triazine-2,4-diamine” value read?
The value was 100%.

What about the “Degradation in % of Melamine” value of the same molecule?
The value was 63%.

Which results are given for B9?
Degradation in % of 6-cyclopentyl-N4-(2,3,4,5,6-pentafluorophenyl)-1,3,5-triazine-2,4-diamine: 66%; Degradation in % of Melamine: 100%

With B10 as the molecule, how does the “Degradation in % of 6-cyclopentyl-N4-(2,3,4,5,6-pentafluorophenyl)-1,3,5-triazine-2,4-diamine” value read?
Its value is 99%.

What about the “Degradation in % of Melamine” value of the same molecule?
The value was 1%.

Which “Degradation in % of 6-cyclopentyl-N4-(2,3,4,5,6-pentafluorophenyl)-1,3,5-triazine-2,4-diamine” value does the source give for B11 here?
The value was 99%.

What about the “Degradation in % of Melamine” value of the same molecule?
The value was 52%.

With B12 as the molecule, how does the “Degradation in % of 6-cyclopentyl-N4-(2,3,4,5,6-pentafluorophenyl)-1,3,5-triazine-2,4-diamine” value read?
Its value is 82%.

And the “Degradation in % of Melamine” value?
The value was 100%.

What does the source list for B13?
Degradation in % of 6-cyclopentyl-N4-(2,3,4,5,6-pentafluorophenyl)-1,3,5-triazine-2,4-diamine: 74%; Degradation in % of Melamine: 0%

What does the source list for B14?
Degradation in % of 6-cyclopentyl-N4-(2,3,4,5,6-pentafluorophenyl)-1,3,5-triazine-2,4-diamine: 33%; Degradation in % of Melamine: 98%

With B15 as the molecule, how does the “Degradation in % of 6-cyclopentyl-N4-(2,3,4,5,6-pentafluorophenyl)-1,3,5-triazine-2,4-diamine” value read?
The value was 98%.

And the “Degradation in % of Melamine” value?
Its value is 100%.

With B16 as the molecule, how does the “Degradation in % of 6-cyclopentyl-N4-(2,3,4,5,6-pentafluorophenyl)-1,3,5-triazine-2,4-diamine” value read?
The value was 98%.

And the “Degradation in % of Melamine” value?
The value was 44%.

For B17, which “Degradation in % of 6-cyclopentyl-N4-(2,3,4,5,6-pentafluorophenyl)-1,3,5-triazine-2,4-diamine” value is on record?
The value was 100%.

What about the “Degradation in % of Melamine” value of the same molecule?
Its value is 67%.

Which results are given for B18?
Degradation in % of 6-cyclopentyl-N4-(2,3,4,5,6-pentafluorophenyl)-1,3,5-triazine-2,4-diamine: 29%; Degradation in % of Melamine: 100%

Which results are given for B19?
Degradation in % of 6-cyclopentyl-N4-(2,3,4,5,6-pentafluorophenyl)-1,3,5-triazine-2,4-diamine: 0%; Degradation in % of Melamine: 5%

For B20, which “Degradation in % of 6-cyclopentyl-N4-(2,3,4,5,6-pentafluorophenyl)-1,3,5-triazine-2,4-diamine” value is on record?
Its value is 99%.

What about the “Degradation in % of Melamine” value of the same molecule?
The value was 100%.
